B1: TPR t1 (parent)
chain: GACCAAUCUGCCCUCAGAGCUCGAGAACAUCUUCGGAUGCAGAGGAGGCAGGCUUCGGUGGCGCGAUAGCGCCAACGUCCUCAACCUCCAAUGCAUCCCACCACAUGAUGAUGCCUGAAGAGCCUUGGUUUUUUG

Variants of: B1
Assay: polymerase ribozyme fitness, log enrichment relative to wild type (log ratio); higher = more active; in vitro selection for triplet polymerase activity
In short: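 Both subunits of a heterodimeric triplet polymerase ribozyme were given their own mutant library, built by PCR and transcribed. Each library was annealed with a biotinylated primer, the partner subunit and triplets, incubated frozen at −7 °C, and its extended constructs gel-excised, captured on streptavidin beads and amplified by RT-PCR, all in one round done in triplicate. Fitness is the logarithm of genotype enrichment relative to wild-type enrichment, with replicates averaged by inverse-variance weighting. That logarithm is base 2, and Illumina-sequenced genotypes needed ≥10 input reads and ≥1 read per output.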

| Variant | polymerase ribozyme fitness (log ratio) |
| --- | --- |
| GACAAAUCUGCCCUCAGAGCUCGAGAACAUCUUCGGUUGCAGAGGAGGCAGGCUUCGGUGGCGCGAUAGCGUCAACGACCUCAACCUCCAAUGCAUCCCACCACAUGAUGAUGCCUGAAGAGCCUUGGUUUUUUG | -1.52 |
| GACAAAUCUGCCCUCAGAGCUCGAGAACCUCUUCGGAUGCAGAGGAGGCAGGCUUCGGUGGCGCGAUAUCGCCAACGUCCUCAACCUCCAAUGCAUCCCACCACAUGAUAAUGCCUGAAAAGCCUUAGUUUUUUG | -4.61 |
| GACAAAUCUGCCCUCGGAGCUCGAGAACAUCUUCGGAUGCAGAGGAGGCAGGCGUCGGUGGCGCGAUAGCGCCAACGUCCUCAACCUCCAAUGCAUCCCAACACAUGAUGAAGCCUGAGGAGCCUUGGUUUUUUG | -0.726 |
| GACAAAUCUGCCCUCAGAGCUCGAGAACAUCUUCGGAUGCUGAGGAGGCAGGCUUCGCUGGCGCGAUAGCGCCAACGUCCUCAACCUCCAAUGCAUCCCACCACAUGAUGAUGCCUAAAGAGCCUUGGUUUUUUG | -7.2 |
| GACAAAUCUGCCCUUAGAGCUCGAGAACAUCUUCGGAUGCAGAGGAGGCAAGCUUCGGUGGCGCGAUAGCGCCAACGUCCUGAACCUCCAAUGCAUCCCACCACAUGAUGAUGCCUGAAGAGUCUUGGUUUUUUG | -5.31 |
| GAUCAAUCUGCCCUCAGAGCUCGAGAACAUCUUCGGAUGCAGAGGAGGCAGGCUUCGGUGGCGCGAUAGCGCCAACGCCCUCAACCGCCAAUGCAUCCCACCACAUGAUGAUGCCUGAAGAGCCUUGGUUUUUUG | -0.313 |
| GACAAAUCUGCCCUCUGAGCUCGAGAACAUCUUCGGAUGCAGAGGAGGCAGGCUUCGGUGGCGCGAUAGCGUCAACGUCCUCAACCUCCAAUGCCUCCCACCACAUGAUGAUGCCUGAAGAGCCUUGGUUUUUUG | -3.63 |
| GACAAAUAUGCCUUCAGAGCUCGAGAACAUCUUCGGAUGCAGAGGAGGCAGGCUUCGGUGGCUCGAUAGCGCCAACGUCCUCACCCUCCAAUGCAUCCCACCACAUGAUGAUGCCUGAAGAGCCUUGGUUUUUUG | -2.38 |
| GAUCAAUCUGCCCUCAGAGCUCGAGAACAUCUUCGGAUGCAGAGGAGGCAGGCUCCGGUGGCGCGAUAGCGCCAACGUCCUCAACCUCUAAUGCAUCCCACCACAUGAUGAUGCUUGAAGAGCCUUGGUUUUUUG | -3.75 |
| GACAAAUCUGCCCUCAGGGCUCGAGAACAUCUUCGGAUGCAGAGGAGGCAGGCUUCGGUGGCGCGAUAGCGCCAACGUCCUCAACCUCAAAUGCAUCCCCCCACAUGAUGAUACCUGAAGAGCUUUGGUUUUUUG | -4.48 |
| GACAAAUCUGCCAUCAGAGCUCGAGAACAUCUUCGGAUGCAGAGGAGGCAGGCGUAGGUGGCGCGAUAGCGCCAACAUCCUCAACCUCCAAUGCAUCCCACCACAUGAUGAUGCCUGAAGAGCCUUGGUUUUUUG | -4.73 |
| GACAAAUCUGCCUUCAGAGCUCGAGAACAUCUUCGGAUGCAGAGGAGGCAGGCUUCGGUGGCGCGAUAGCGCCAACGUCCUCAACCUCCAAUGCAUCCCACCACAUGAUGAUGCCUGAAGAGCCUUGGUUUUUUG | -1.41 |
| GACAAAUCUGCCCUCAGAGCUCGAGAACAUCUUCGGAUGCAGAGGAGGCAGGCUUCGGUGGCGCGAUAGCGCCAACGUCCUCAACCUCCAAUGCAUCCCACCACAUGAUGAUGCCUGAUGAGCCUUGGUUUUUUG | -1.66 |
| GACAAAUCUGCCCUCAGAGCUCGAGAACAUCUUCGGAUGCAGAGGAGGCAGGCUUCGGUGGCGCGAUAGGGCCAACGUCCUCAACCUCCAAUGCAUCCCACCACAUGAUGAUACCAGAAGAGCCUUGGUUUUUUG | -6.73 |
| GACAAAUCUGCCCUCAGAGCUCGAGAACAUCUUCGGAUGUAGAGGAGGCAGGCUUCGGUGUCGCGAUAGCGCCAACGUCCUCAACCUCCAAUGCAUCCCACCACAUGAUGAUGCCUGAAGAGCCUUGGUUUUUUG | -1.92 |
| GACAAAUCUGCCCUCAGAGCUCGAGAACAUCUUCGGAUGCAGAGGAGGCAGGCUUCGGUGGCGCGAUAGGGCCAACGUCCUCAACCUCCAAUGCAUCCCACCACAUGAUGAUGCCUGAAGAGCCUUGGUUUUUUG | -3.6 |
| GACAAAUCUGCCCUCAGAGCUCGAGAACAUCUUCGGAUGCAGAGGAGGCAGGCUUCGGUGGCGCGAUAGUGCCAACGUCCUCAACCUCCAAUGCAUCCCACCACAUGAUGAUGCCUGAAGAGCCUUGGUUUUUUG | -1.71 |
| GACAACUCUGCCCUCAGAGCUCGAGAACAUCUUCGGAUGCAGAGGCGGAAGGCUUCGGUGGCGCGAUAGAGGCAACGUCCUCACCCUCCAAUGCAUCCCACCACAUGAUGAUGCCUGAUGAGACUGGGUUUUUUG | -6.91 |
| GAUCAAUCUGCCCUCAGAGCUCGAGAACAUCUUCGGAUGCAGAGGAGGCAGGCUUCGGCGGCGCGAUAGCGCCAACGUCCUCAACCUCCAAUGCAUCCCACCACAUGAUGGUGCCUGAAUAGCCUUGGUUUUUUG | -2.84 |
| GACAAAUCUGCCCUCAGCGCUCGAGAACAUCUUCGGAUGCAGAGGAGGUAGGCUUCGGUGGCGCGAUAGCGCCAACGUCCUCAAUCUCCAAUGCAUCCCACCACAUGAUGAUGGCUGAAGAGCCUUGGUUUUUUG | -5.25 |
| GACAAAUCUGCCCUCAGAGCUCGAGAACGUGUUCGGAUGCAGAGGAGGCAGGCUUCGGUGGCGCGAUAGCGCCAACGUCCUCAACCUCCAAUGCAUCCCACCACGUGUUGCUGCGUGAAGAGACUUGGUUUUUUG | -6.34 |

| Variant | polymerase ribozyme fitness (log ratio) |
| --- | --- |
| GACAAAUCUGCCCUCAGAGCUCGAGAACAUCUUCGGAUGCAGAGGAGGCAGGCUUAGGUGGCGCGAUAGAGUCAACGUCCUCAACCUCCAAUGCAUCCCACCACAUGAUGAUGCCUGAAGAGCCGUGGUUUUUUG | -4.17 |
| GACAAAUCUGCCGUCAGAGCUCGAGAACAUCUUCGGAUGCAGAGGAGGGAGGCUUCGGUGGCGCGAUAGCGCCAACGUCCUCAACCUGCAAUGCAUCCCACCACAUGAUGAUGCCUGAAGAGCCUUGGUUUUUUG | -4.57 |
| GACAAAUCUGCCCUCAGAGCUCGAGAACAUCUUCGGAUGCAGAGGAGGCAGGCUUCGGUGGCGCGAUAGCGCCAACGUCCUCAACCUCCAAUGCAUCUCACCACAUGAUGAUGCCUGAAGAGCCUUGGUUUUUUG | -2.2 |
| GACAAAUCUGCCCUGAGAGCUCGAGAACAUCUUCGGAUGCAGAGGAUGCAGGCUUCGGUGGCGUGAUAGCGCCAACGUCCUCAACCUCCAAUGCAUCCCACCACAUGAUGAUGCGUGAUUAGCCUUGGUUUUUUU | -7.19 |
| GACAAAUCUGCCCUCAGAGCUCGAGAACAUCUUCGGAUGCAGAGGCGGCAGGCUUCGGUGGCGUGAUAGCGCCAACGUCCUCAACCUCCAAUGCAUCCCACCACAUGAUGAUGACUGAAGAGCAUUGGUUGUUUG | -3.27 |
| GACAAAUCUGCCCUCAGAGCUCGAGAACAUCUUCGGAUGCAGAGGAGGCAGGCUUCGGUGGCGCGAUAGCGCCAACGUCCUCAAACUCCAAUGCAUCCCACCACAUGAUGAUGCCUGAAGAGCCUUGGUUUUUUG | -2.93 |
| GACAAAUCUGCCCUCAGAGCUCGAGAACAUCUUCGGAUGCAGAGGAGGCAGGCUUCGGUGGCGCGAUAGCGCCAACGUCCUCAACCUCCAUUGCAUCCCACCACAUGAUGAUGCCUGAAGAGCCUUGGUUUUUUG | -3.65 |
| GACAAAUCUGCCUUCAGAGCUCGAGAACAUCUUCGGAUGCAGAGGAGGCAGGCUUCGGUGGCCCGAUAGCGCCAACGUCCACAACCUCCAAUGCAUCCCACCACAUGAUGAUGCCUGAAGAGCCUUGGUUUUUUG | -2.72 |
| GACAAAUCUGCCCUGAGAGCUCGAGAACAUCUUCGGAUGCAGAGGAGGCAGGCUUCGGUGGCGCGAUAGCGCCAACGUCCUCAACCUCCAAUGCAUCCCACCACAUGAUGAUGCCUGAAGAGCCUUGGUUUUUUG | -4.24 |
| GACAAAUCUGCCCUCAGAGCUCGGGAACAUCUUCGGAUGCAGAGGAGUCAGGCUUCGGUAGCGCGAUAGCGCCAACGUCCUCAACCUCCAAUGCAUCCCACCACAUGAUGAUGCCUGAAGAGCCUUGGUUUUUUG | -4.54 |
| GACAAAUCUGCCUUCAGAGCUCGAGAACAUCUUCGGAUGCAGAGGAGGCAGGCUUCGGUGGCGCGAUAGCGCCAACGUCCUCAACCUCCAAUGCAUCCCAGCACAUGAUGAUGCCUGAAGAGCCUUGGUUUUUUG | -4.23 |
| GACAAAUCUGCCCUUAGAGCUCGAGAACAUCUUCGGAUGCAGAGGAGGCAGGCUUCGGUGACGCGAUAGCGCCAACGUCCUCAACCACCAAUGCAUCCCACCACAUGAUGAUGCCUGAAGAGCCUUGGUUUUUUG | -2.75 |
| GACAAAUCUGCCCUCAGAGCUCGAGAACUUCUUCGGAUGCAGAGGAGUCAGGCUUCGGUGGCGCGAUAGCUCCAACGUCCUCAACCUCCAAUGCAUCCCACCACAUGAGGAUGCCUGAAGAGCCUUGGUUUUUUG | -5.09 |
| GAUCAAUCUGCCCUCAGAGCUCGAGAACAUCUUCGGAUGCAGAGGAGGCAGGCUUCGGUGGCGCGAUAGCGCCAACGUCCUCAACCUCCAAUGCAUCCCACCACAUGAUGAAGCCUGAAGAGCCUUGGUUUUUUG | 0.197 |
| GAUCAAUCUGCCCUCAGAGCUCGAGAACAUCUUCGGAUGCAGAGGAGGCAGGCAUCGGUGGCGCGAUAGCGCCAACGUCCUCAACCUCCAUUGCAUCCCACCACAUGAUGAUGCCUGAAGAGCCUUGGUUUUUUG | -2.48 |
| GACAAAUCUGUCCUCAGAGCUCGAGAACAUCUUCGGAUGCAGAGGAGGCAGGCUUCGGUGGCGCGAUAUCGCCAACGUCCUCAACCUCCAAUGCAUGCCACCACAUGAUGAUGCCUGAAGAGCCUUGGUUUUUUG | -3.61 |
| GACAAAUCUGCCCUCAGAGCUCGAGAACAUCUUCGGAUGCAGAGGAGGCAGGCUUCGGUGGCGCGAUAGCGCGAACGUCCUCAACCUCCAAUGCAUCCCACCACAUGAUGAUGCCUGAAGAGCCUUGGUUUUUUG | -2.98 |
| GACAAAUCUGCCCUCAGAGCUCGAGAACAUCUUCGGAUGUAGAGGAGGCAGGCUUCGGUGGCGCGAUAGCGCCAACGUCCUCAACCUCCAAUGCAUCCCACGACAUGAUGAUGCAUGAAGAGCCUUGGUUUUUUG | -6.67 |
| GACAAAUCUGCCCUCAGAGCUCGAGAACAUCUUCGGAUGCCGAGGAGGCAGGCUUCGGUGGCGUGAUAGCGCCAACGUCCUCAACCUCCAAUGCAUCCCACCACAUGAUGAUGCCUGAAGAGCCUUGGUUUUUUG | -1.54 |
| GACAAAUCUGCCCUCAGAGCUCGAGAACAUCUUCGGAUGCAGAGGAGGCAGGCUUCGGUGGCGCGAUAGCGCCAACGUCCUCAACCUCCAAUGCCUCCCACCACAUGAUGAUGCCUGAAGAGGCUUGGUUUUUUG | -1.42 |
| GACAAAUCUGGCCUCAGAGCUCGAGAACAUCUUCGGAUGCAGAGGAGGCAGGCUUCGGUAGCGCGAUAGCGCCAACGUCCUCAACCUCCAAUGCAUCCCACCACAUGAUGAUGGCUGAAGAGCCUUGGUUUUUUG | -5.08 |
